Where “and” joins values, the source holds several entries; their conditions need not be identical. Equal entries are not always repeated.
What was measured:
[1] = biological target: the molecule itself; test: number and brightness analysis with TIRF microscopy
[2] = biological target: the molecule itself; test: number and brightness analysis with TIRF microscopy; live TZM-bl cells expressing Dynamin-mCherry, exposed to HIV(JRFL) at MOI 10; 100 frames at 50 ms per frame; brightness calibrated against mCherry alone

B1: dynamin-2 (natural protein, UniProt P50570 1-870, looked up)
chain: MGNRGMEELIPLVNKLQDAFSSIGQSCHLDLPQIAVVGGQSAGKSSVLENFVGRDFLPRGSGIVTRRPLILQLIFSKTEHAEFLHCKSKKFTDFDEVRQEIEAETDRVTGTNKGISPVPINLRVYSPHVLNLTLIDLPGITKVPVGDQPPDIEYQIKDMILQFISRESSLILAVTPANMDLANSDALKLAKEVDPQGLRTIGVITKLDLMDEGTDARDVLENKLLPLRRGYIGVVNRSQKDIEGKKDIRAALAAERKFFLSHPAYRHMADRMGTPHLQKTLNQQLTNHIRESLPALRSKLQSQLLSLEKEVEEYKNFRPDDPTRKTKALLQMVQQFGVDFEKRIEGSGDQVDTLELSGGARINRIFHERFPFELVKMEFDEKDLRREISYAIKNIHGVRTGLFTPDLAFEAIVKKQVVKLKEPCLKCVDLVIQELINTVRQCTSKLSSYPRLREETERIVTTYIREREGRTKDQILLLIDIEQSYINTNHEDFIGFANAQQRSTQLNKKRAIPNQGEILVIRRGWLTINNISLMKGGSKEYWFVLTAESLSWYKDEEEKEKKYMLPLDNLKIRDVEKGFMSNKHVFAIFNTEQRNVYKDLRQIELACDSQEDVDSWKASFLRAGVYPEKDQAENEDGAQENTFSMDPQLERQVETIRNLVDSYVAIINKSIRDLMPKTIMHLMINNTKAFIHHELLAYLYSSADQSSLMEESADQAQRRDDMLRMYHALKEALNIIGDISTSTVSTPVPPPVDDTWLQSASSHSPTPQRRPVSSIHPPGRPPAVRGPTPGPPLIPVPVGAAASFSAPPIPSRPGPQSVFANSDLFPAPPQIPSRPVRIPPGIPPGVPSRRPPAAPSRPTIIRPAEPSLLD
notes: dynamin-2 (DNM2), large GTPase; Each copy carries ONE fluorescent protein; FRET-FLIM used an EGFP-tagged copy together with an mCherry-tagged copy; number and brightness used the mCherry-tagged copy alone; The Addgene dynamin-2 plasmids may encode the rat protein (surmise); also called DNM2; Dyn-GFP; source: TZM-bl cells, transfected (plasmids obtained from Addgene), in live cells
[1]
  stoichiometry N: 8 and 6
[2]
  stoichiometry N: 4
